# Source: paper PMC3912212
# Key:
# [1] = target: paclitaxel-stabilized microtubules (bovine brain tubulin) (bovine (purified from juvenile bovine brains)) (UniProt Q6B856); test: calculated from the TIRF intensity titration (KD) and the single-molecule lifetimes (koff); association rate constant inferred from KD and koff, not measured directly
# [2] = target: paclitaxel-stabilized microtubules (bovine brain tubulin) (bovine (purified from juvenile bovine brains)) (UniProt Q6B856); test: TIRF microscopy, single-molecule assay for microtubule-associated proteins; rhodamine-labeled microtubules immobilised on the surface by anti-rhodamine antibodies; CCA-GFP in solution; lifetimes of tracked single molecules, exponential fit, corrected for photobleaching
# [3] = target: paclitaxel-stabilized microtubules (bovine brain tubulin) (bovine (purified from juvenile bovine brains)) (UniProt Q6B856); test: TIRF microscopy, fluorescence intensity on microtubules against concentration; fluorescently-labeled microtubules adhered to cover glass; CCA-GFP introduced at increasing concentrations and allowed to equilibrate; line-scan intensity fit to a Michaelis-Menten curve (binding isotherm)
# [4] = target: paclitaxel-stabilized microtubules (bovine brain tubulin) (bovine (purified from juvenile bovine brains)) (UniProt Q6B856); test: TIRF microscopy, fluorescence intensity on microtubules; one flow chamber containing both brightly-labeled microtubules and dimly-labeled, subtilisin-digested microtubules; CCA-GFP in solution; line-scan intensity, mean ± SD
# [5] = target: paclitaxel-stabilized microtubules (bovine brain tubulin) (bovine (purified from juvenile bovine brains)) (UniProt Q6B856)
# [6] = target: subtilisin-digested microtubules (C-terminal tails of tubulin removed) (bovine (purified from juvenile bovine brains))
# [7] = target: paclitaxel-stabilized microtubules (bovine brain tubulin) (bovine (purified from juvenile bovine brains)) (UniProt Q6B856); test: TIRF microscopy, fluorescence intensity on microtubules; surface-immobilized microtubules; CCA-GFP with no added salt, 25 mM KCl or 50 mM KCl; line-scan intensity, mean ± SD
substance,measurement,setting,value
"CCA-GFP, minimal chromosome passenger complex of INCENP a.a. 491-873 (coiled-coil domain and INBox) and Aurora-B (from UniProt O13024 491-873; Q6DE08 1-361)",kon,[1],8.25e+06 M⁻¹ s⁻¹
same,koff,[2],0.66 s⁻¹
same,mean residence time on the lattice,[2],1.5 s
same,Kd,[3],80 nM
same,GFP intensity on undigested microtubules,[4],375 a.u.
same,normalized 32P band intensity of the INBox motif (CCA auto-phosphorylation) in an in vitro kinase assay with 3 µM microtubules; buffer control 0.62,[5],0.92 a.u.
same,"normalized 32P band intensity of the INBox motif (CCA auto-phosphorylation) in an in vitro kinase assay with 3 µM subtilisin-digested microtubules; buffer control 0.62, undigested microtubules 0.92",[6],0.64 a.u.
same,"CCA-GFP intensity on microtubules, 25 mM KCl added",[7],117 a.u.
same,"CCA-GFP intensity on microtubules, 50 mM KCl added",[7],27 a.u.
same,"CCA-GFP intensity on microtubules, no added salt",[7],277 a.u.
